Results on eight substances are retold here after PMC6589784.

Assay [1] deals with Mg-ATP-actin (skeletal muscle actin, assembled into filaments) (rabbit or chicken) (UniProt P68135). In words: single-molecule two-color TIRFM.
For assay [2] the target is unchanged. Put plainly: single-molecule two-color TIRFM. This is another data set of the same source.
Assay [3] has the same target. In words: single-molecule two-color TIRFM. This is another data set of the same source.
For assay [4] the target is unchanged. In words: bulk seeded pyrene actin assembly.
For assay [5] the target is unchanged. Put plainly: single-color TIRFM of actin elongation rates.

Read-outs that look alike come from different tables or passages of the source.

Substance MBP-SNAP(549)-EnaΔLΔCC-GCN4 returned a processive run length tau, 2-filament trailing barbed ends in assay [1] of 1.5 s.

In assay [2], “SNAP(549)-EnaΔL (from UniProt Q8T4F7 1-980) (natural protein)” displayed an average processive run length tau, leading barbed ends of 10.1 s and an average processive run length tau, trailing barbed ends of 28.1 s. Moreover, in assay [1], the average processive run length tau, leading barbed ends is 8.4 s; the average processive run length tau, trailing barbed ends came out at 23.7 s; the average residence time tau, single filament barbed ends came out at 10 s; the average residence time tau, trailing barbed ends of a two-filament bundle turned out to be 21.7 s. Besides, in assay [3], the average residence time tau, single filament barbed ends is 8.9 s and the average residence time tau, trailing barbed ends of a two-filament bundle came to 16.8 s.

Regarding “SNAP(549)-VASP (from UniProt P50552 1-380) (natural protein)”, in assay [1], the average residence time tau, single filament barbed ends came to 1 s and the processive run length tau, trailing barbed ends of 2-filament fascin bundles came to 2.6 s.

As for MBP-SNAP(549)-EnaΔLΔCC-Foldon, in assay [1], the processive run length tau, 2-filament trailing barbed ends came to 8.9 s and the processive run length tau, 3- or more filament trailing barbed ends turned out to be 11.2 s.

The term Kd denotes the concentration at which binding is half-saturated. Lower therefore signals a tighter complex. In the case of unlabeled UNC-34 (natural protein), the Kd was determined as 10.2 nM in assay [4] and 6.7 nM in assay [5].

As for “unlabeled EnaΔL (from UniProt Q8T4F7 1-980) (natural protein)”, the dissociation constant Kd in assay [4] amounted to 0.7 nM; in assay [5] it was 3.2 nM.

In assay [1], SNAP(549)-UNC-34 (natural protein) registered an average residence time tau, single filament barbed ends of 1.2 s and a processive run length tau, trailing barbed ends of 2-filament fascin bundles of 2.9 s.

For the substance “unlabeled VASP (from UniProt P50552 1-380) (natural protein)”, the Kd in assay [4] was 10.8 nM; in assay [5] it was 12.2 nM.
